B1: TOR1AIP2 (parent)
chain: YKYCDHENAAFKDVALVLTVLLEE

Variants of: B1
Experiment: protein stability index of a GFP-peptide fusion (GPS, HEK-293T) (PSI 1-6); higher = more stable
Details: c terminus: a fixed tail appended
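Further: lentivirally expressed fusions sorted by FACS into six bins by GFP to DsRed ratio, PSI derived from sequencing read proportions per bin multiplied by bin number.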

Variant | protein stability index
YKYCDHENAAFKDHALVLTVLLEE [V14H] | 1.4
YKYCDHENAAFKDIALVLTVLLEE [V14I] | 2.17
YKDCDHENAAFKDVALVLTVLLEE [Y3D] | 2.78
YKYCDHCNAAFKDVALVLTVLLEE [E7C] | 4.53
YKYCDHLNAAFKDVALVLTVLLEE [E7L] | 2.71
YKYCDHENAAFKDVALVLTVLLPE [E23P] | 4
YKYCDHENAAFKDVALVLTVLLNE [E23N] | 2.26
YKYCDHENAAFKDVALVKTVLLEE [L18K] | 3.17
YKYCDHENAAFKDVALVFTVLLEE [L18F] | 2
YKYCDHENAAFKDVALVSTVLLEE [L18S] | 3.57
YKYCDHENAAFKDVALVCTVLLEE [L18C] | 1.6
YKYCDHENAAFKDVALVHTVLLEE [L18H] | 2.77
YKYCDHENAAFKDVALVATVLLEE [L18A] | 1.91
YKYCDGENAAFKDVALVLTVLLEE [H6G] | 2.26
YKYCDHENAAFKDVALVLTVGLEE [L21G] | 1.05
YKYCDHENAAFKDVALVLTVILEE [L21I] | 2.99
YKYCDHENAAFKDVALVLTVSLEE [L21S] | 1.5
YKYCDHENAAFKDVALVLTVTLEE [L21T] | 4.25
YKYCDHENAANKDVALVLTVLLEE [F11N] | 1.38
YKYCDHENAAYKDVALVLTVLLEE [F11Y] | 2.67
YKYCPHENAAFKDVALVLTVLLEE [D5P] | 3.2
YKYCDHENAAFKDVALVLTVLLES [E24S] | 3.26
YKYCDHENAAFKDVALVLTVLLEH [E24H] | 3.71
YKYCDHENAAFKDVALVLTVLLER [E24R] | 3.2

Variant | protein stability index
YKYCDHENAAFKDVAKVLTVLLEE [L16K] | 2.72
YKYCDHENAAFKDVARVLTVLLEE [L16R] | 1.4
YKYCDHENAAFKDVACVLTVLLEE [L16C] | 1.47
YKYCDHENAAFKDVALVLTPLLEE [V20P] | 2.23
YKYCDHENAAFKDVALVLTMLLEE [V20M] | 4.6
YKYCDHENAAFKDVALVLTCLLEE [V20C] | 2.82
YKYCDHENAAFKDVALVLTALLEE [V20A] | 1.06
YKYCDHENAAFKDVALQLTVLLEE [V17Q] | 1.84
YKYCDHENAAFKDVALYLTVLLEE [V17Y] | 3.19
YKYCDHENAAFKDVALRLTVLLEE [V17R] | 1.73
YNYCDHENAAFKDVALVLTVLLEE [K2N] | 1.99
YKYCDHENAGFKDVALVLTVLLEE [A10G] | 2.42
YKYCDHENAKFKDVALVLTVLLEE [A10K] | 3.02
YKYCDHENAPFKDVALVLTVLLEE [A10P] | 1.16
YKYCDHENAYFKDVALVLTVLLEE [A10Y] | 3.38
YKYCDHENAAFKDVRLVLTVLLEE [A15R] | 2.8
YKYCDHENAAFKDVSLVLTVLLEE [A15S] | 2.69
YKYCDHENNAFKDVALVLTVLLEE [A9N] | 3.72
YKYCDHENDAFKDVALVLTVLLEE [A9D] | 1.4
YKYCDHENAAFKDVALVLNVLLEE [T19N] | 2.25
YKYDDHENAAFKDVALVLTVLLEE [C4D] | 1.05
YKYCDHENAAFKDVALVLTVLQEE [L22Q] | 1
YKYCDHENAAFKDVALVLTVLDEE [L22D] | 2.07
YKYCDHENAAFKDVALVLTVLREE [L22R] | 2.7
